Test results from FireProtDB (doi:10.1016/j.jmb.2009.11.038).

Details: Homo sapiens, pH 7.5, Fluorescence, Sodium phosphate 20mM, transition: 2, whole UniProt chain shown

B1: wild type, Q5NV88 (protein)
chain: NFMLTQPHSVSESPGKTVTISCTRSSGSIASNYVQWYQQRPGSSPTTVIYEDNQRPSGVPDRFSGSIDSSSNSASLTISGLKTEDEADYYCQSYDSSN
25 °C, GdnHCl
  denaturant midpoint (higher = more stable): 1.41 M
  unfolding free energy: 5.1 kcal/mol
Thermal
  Tm: 49.9 °C
  unfolding enthalpy (calorimetric): 86.2 kcal/mol
  unfolding free energy: 5.2 kcal/mol
